The sequences below were run on Escherichia coli TOP10 (assay: shrunken log2 fold change of peptide-encoding DNA abundance (4.5 h post-induction vs induction); higher = less antimicrobial activity (less host growth inhibition)). Settings: time post-induction: 4.5 h; library: site-saturation at positions 5, 18, 19, 20.
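Further: peptides expressed intracellularly from a pBAD plasmid library in pooled LB shake-flask culture, induced with 0.3% L-arabinose, DNA abundance read by NGS, three biological replicates, DESeq2 with apeglm shrinkage.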

| Sequence | shrunken log2 fold change |
| --- | --- |
| RRIRIRPPRLPRPRPRPDTAPRP | -0.232 |
| RRIRNRPPRLPRPRPRPVCPPRP | -0.14 |
| RRIRPRPPRLPRPRPRPREDPRP | 0.134 |
| RRIRIRPPRLPRPRPRPGVIPRP | -0.0127 |
| RRIRWRPPRLPRPRPRPKGNPRP | 0.514 |
| RRIRGRPPRLPRPRPRPGHLPRP | 0.0503 |
| RRIRYRPPRLPRPRPRPASFPRP | -0.138 |
| RRIRDRPPRLPRPRPRPASRPRP | 0.17 |
| RRIRSRPPRLPRPRPRPEAQPRP | 0.438 |
| RRIRHRPPRLPRPRPRPKPGPRP | 0.21 |
| RRIRNRPPRLPRPRPRPIAWPRP | 0.228 |
| RRIRPRPPRLPRPRPRPVHHPRP | -0.218 |
| RRIRERPPRLPRPRPRPHSGPRP | -0.365 |
| RRIRQRPPRLPRPRPRPLVKPRP | -0.166 |
| RRIRGRPPRLPRPRPRPFVMPRP | -0.0182 |
| RRIRFRPPRLPRPRPRPCGHPRP | -0.129 |
| RRIRFRPPRLPRPRPRPLNNPRP | -0.767 |
| RRIRRRPPRLPRPRPRPHWDPRP | -0.0203 |
| RRIRHRPPRLPRPRPRPILEPRP | 0.077 |
| RRIRLRPPRLPRPRPRPATVPRP | -0.138 |
| RRIRPRPPRLPRPRPRPIPFPRP | -0.0358 |
| RRIRYRPPRLPRPRPRPCTLPRP | 0.0191 |
| RRIRHRPPRLPRPRPRPEKYPRP | -0.159 |
| RRIRSRPPRLPRPRPRPEDTPRP | -0.00541 |
| RRIRVRPPRLPRPRPRPFARPRP | 0.206 |

| Sequence | shrunken log2 fold change |
| --- | --- |
| RRIRYRPPRLPRPRPRPGICPRP | -0.179 |
| RRIRQRPPRLPRPRPRPNACPRP | -0.000684 |
| RRIRVRPPRLPRPRPRPSTPPRP | -0.0614 |
| RRIRGRPPRLPRPRPRPSNKPRP | -0.0675 |
| RRIRSRPPRLPRPRPRPGGRPRP | 0.284 |
| RRIRQRPPRLPRPRPRPQYVPRP | 0.0318 |
| RRIRKRPPRLPRPRPRPRTVPRP | 0.244 |
| RRIRMRPPRLPRPRPRPHDNPRP | 0.0232 |
| RRIRDRPPRLPRPRPRPWSTPRP | -0.274 |
| RRIRMRPPRLPRPRPRPPWEPRP | 0.601 |
| RRIRLRPPRLPRPRPRPYWHPRP | -0.61 |
| RRIRLRPPRLPRPRPRPFNNPRP | -0.426 |
| RRIRIRPPRLPRPRPRPMSQPRP | -0.119 |
| RRIRYRPPRLPRPRPRPESRPRP | -0.12 |
| RRIRDRPPRLPRPRPRPVDCPRP | -0.0327 |
| RRIRPRPPRLPRPRPRPVVPPRP | 0.134 |
| RRIRDRPPRLPRPRPRPQCEPRP | 0.0364 |
| RRIRCRPPRLPRPRPRPDIQPRP | -0.268 |
| RRIRCRPPRLPRPRPRPAYMPRP | 0.119 |
| RRIRMRPPRLPRPRPRPGQGPRP | 0.269 |
| RRIRVRPPRLPRPRPRPYREPRP | -0.3 |
| RRIRYRPPRLPRPRPRPEGQPRP | 0.0448 |
| RRIRWRPPRLPRPRPRPNKHPRP | -0.281 |
| RRIRMRPPRLPRPRPRPLYGPRP | -0.281 |
| RRIRYRPPRLPRPRPRPSLPPRP | -0.546 |

| Sequence | shrunken log2 fold change |
| --- | --- |
| RRIRCRPPRLPRPRPRPKFEPRP | 0.00386 |
| RRIRYRPPRLPRPRPRPAWGPRP | 0.0852 |
| RRIRMRPPRLPRPRPRPDRMPRP | 0.422 |
| RRIRCRPPRLPRPRPRPACVPRP | 0.211 |
| RRIRDRPPRLPRPRPRPSIYPRP | -0.313 |
| RRIRRRPPRLPRPRPRPTKCPRP | 0.114 |
| RRIRKRPPRLPRPRPRPGERPRP | -0.116 |
| RRIRFRPPRLPRPRPRPQMTPRP | -0.169 |
| RRIRRRPPRLPRPRPRPCMFPRP | -0.0745 |
| RRIRWRPPRLPRPRPRPFLKPRP | -0.4 |
| RRIRMRPPRLPRPRPRPLDKPRP | 1.96 |
| RRIRWRPPRLPRPRPRPKAYPRP | -0.12 |
| RRIRYRPPRLPRPRPRPNGAPRP | -0.0032 |
| RRIRFRPPRLPRPRPRPDKPPRP | 0.0269 |
| RRIRRRPPRLPRPRPRPSWPPRP | 0.0963 |
| RRIRFRPPRLPRPRPRPNSVPRP | -0.0912 |
| RRIRVRPPRLPRPRPRPLDDPRP | 0.00726 |
| RRIRVRPPRLPRPRPRPFLFPRP | -0.205 |
| RRIRGRPPRLPRPRPRPGTEPRP | 0.731 |
| RRIRDRPPRLPRPRPRPFLVPRP | -0.199 |
| RRIRIRPPRLPRPRPRPWHNPRP | -0.169 |
| RRIRTRPPRLPRPRPRPSQVPRP | -0.2 |
| RRIRMRPPRLPRPRPRPENMPRP | 0.0343 |
| RRIRFRPPRLPRPRPRPFDQPRP | -0.291 |
| RRIRERPPRLPRPRPRPWLEPRP | 0.101 |

| Sequence | shrunken log2 fold change |
| --- | --- |
| RRIRKRPPRLPRPRPRPKDEPRP | 0.0833 |
| RRIRSRPPRLPRPRPRPRYVPRP | -0.597 |
| RRIRTRPPRLPRPRPRPWASPRP | -0.068 |
| RRIRDRPPRLPRPRPRPDNGPRP | -0.223 |
| RRIRSRPPRLPRPRPRPSKEPRP | -0.0581 |
| RRIRHRPPRLPRPRPRPWQNPRP | -0.169 |
| RRIRLRPPRLPRPRPRPGAQPRP | 0.0336 |
| RRIRARPPRLPRPRPRPYVGPRP | 0.0297 |
| RRIRMRPPRLPRPRPRPQPAPRP | 1.55 |
| RRIRIRPPRLPRPRPRPTMYPRP | -0.769 |
| RRIRHRPPRLPRPRPRPQCIPRP | -0.235 |
| RRIRPRPPRLPRPRPRPGAVPRP | 0.379 |
| RRIRIRPPRLPRPRPRPIVLPRP | -0.181 |
| RRIRIRPPRLPRPRPRPVYGPRP | -0.351 |
| RRIRERPPRLPRPRPRPDHPPRP | -0.0179 |
| RRIRQRPPRLPRPRPRPCMFPRP | -0.214 |
| RRIRERPPRLPRPRPRPTMAPRP | 0.00526 |
| RRIRGRPPRLPRPRPRPSHCPRP | 0.204 |
| RRIRYRPPRLPRPRPRPCTMPRP | -0.347 |
| RRIRYRPPRLPRPRPRPVMMPRP | -0.891 |
| RRIRLRPPRLPRPRPRPAPSPRP | 0.163 |
| RRIRTRPPRLPRPRPRPEEKPRP | 0.167 |
| RRIRDRPPRLPRPRPRPLIPPRP | -0.516 |
| RRIRVRPPRLPRPRPRPHRTPRP | -0.16 |
| RRIRVRPPRLPRPRPRPPHLPRP | -0.0283 |

| Sequence | shrunken log2 fold change |
| --- | --- |
| RRIRKRPPRLPRPRPRPWGGPRP | 0.407 |
| RRIRVRPPRLPRPRPRPTFMPRP | -0.0669 |
| RRIRMRPPRLPRPRPRPHLVPRP | -0.0163 |
| RRIRHRPPRLPRPRPRPMNAPRP | -0.282 |
| RRIRLRPPRLPRPRPRPKHIPRP | -0.241 |
| RRIRDRPPRLPRPRPRPVEVPRP | 0.43 |
| RRIRHRPPRLPRPRPRPQPTPRP | -0.18 |
| RRIRHRPPRLPRPRPRPFMPPRP | -0.146 |
| RRIRHRPPRLPRPRPRPHVEPRP | -0.0794 |
| RRIRDRPPRLPRPRPRPTVDPRP | 0.195 |
| RRIRFRPPRLPRPRPRPTHGPRP | -0.0666 |
| RRIRWRPPRLPRPRPRPDCLPRP | 0.166 |
| RRIRHRPPRLPRPRPRPCWYPRP | -0.0677 |
| RRIRKRPPRLPRPRPRPTDLPRP | 0.0464 |
| RRIRARPPRLPRPRPRPNPTPRP | 1.11 |
| RRIRIRPPRLPRPRPRPPHRPRP | -0.144 |
| RRIRNRPPRLPRPRPRPMTNPRP | 0.454 |
| RRIRHRPPRLPRPRPRPWMSPRP | -0.0135 |
| RRIRRRPPRLPRPRPRPCLLPRP | -0.335 |
| RRIRYRPPRLPRPRPRPTISPRP | -0.893 |
| RRIRFRPPRLPRPRPRPIDRPRP | -0.0144 |
| RRIRSRPPRLPRPRPRPLDWPRP | 0.262 |
| RRIRMRPPRLPRPRPRPCGFPRP | 0.0233 |
| RRIRCRPPRLPRPRPRPVGWPRP | 0.64 |
| RRIRGRPPRLPRPRPRPVFTPRP | 0.523 |

| Sequence | shrunken log2 fold change |
| --- | --- |
| RRIRVRPPRLPRPRPRPTIDPRP | -0.0691 |
| RRIRQRPPRLPRPRPRPGHEPRP | 0.104 |
| RRIRCRPPRLPRPRPRPPQIPRP | 0.328 |
| RRIRIRPPRLPRPRPRPFVHPRP | -0.498 |
| RRIRYRPPRLPRPRPRPRQMPRP | -0.0779 |
| RRIRKRPPRLPRPRPRPKDHPRP | 0.308 |
| RRIRSRPPRLPRPRPRPMVTPRP | -0.134 |
| RRIRVRPPRLPRPRPRPPVDPRP | 0.0819 |
| RRIRYRPPRLPRPRPRPMCCPRP | -3.16 |
| RRIRARPPRLPRPRPRPLNQPRP | -0.0348 |
| RRIRQRPPRLPRPRPRPHADPRP | -0.43 |
| RRIRARPPRLPRPRPRPDEGPRP | 0.37 |
| RRIRSRPPRLPRPRPRPVIAPRP | 0.053 |
| RRIRKRPPRLPRPRPRPSLEPRP | 0.286 |
| RRIRVRPPRLPRPRPRPYKVPRP | -0.0222 |
| RRIRHRPPRLPRPRPRPQQAPRP | -0.00588 |
| RRIRHRPPRLPRPRPRPRHTPRP | -0.0794 |
| RRIRHRPPRLPRPRPRPMRFPRP | -0.00752 |
| RRIRKRPPRLPRPRPRPSILPRP | -0.11 |
| RRIRMRPPRLPRPRPRPWIRPRP | -0.167 |
| RRIRRRPPRLPRPRPRPMKYPRP | 0.00758 |
| RRIRNRPPRLPRPRPRPSGRPRP | -0.0659 |
| RRIRERPPRLPRPRPRPGEDPRP | -0.0649 |
| RRIRVRPPRLPRPRPRPPKIPRP | -0.05 |
| RRIRNRPPRLPRPRPRPLCPPRP | -0.141 |
